This is an account of results in the supplement of paper PMC9112550, “Optimization of the antimicrobial peptide Bac7 by deep mutational scanning” (BMC Biology, 2022).

This series concerns Escherichia coli TOP10. Nature of the series: shrunken log2 fold change of peptide-encoding DNA abundance (4.5 h post-induction vs induction); higher = less antimicrobial activity (less host growth inhibition). As to conditions: time post-induction: 4.5 h; library: site-saturation at positions 5, 18, 19, 20.
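Note: peptides expressed intracellularly from a pBAD plasmid library in pooled LB shake-flask culture, induced with 0.3% L-arabinose, DNA abundance read by NGS, three biological replicates, DESeq2 with apeglm shrinkage.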

Turning to RRIRRRPPRLPRPRPRPPMVPRP, the “shrunken log2 fold change” value was determined as 0.285.
In the case of RRIRSRPPRLPRPRPRPSYPPRP it was -0.736; in that of RRIRVRPPRLPRPRPRPAWQPRP, -0.00433; in that of RRIRCRPPRLPRPRPRPARIPRP, 0.0785.
RRIRNRPPRLPRPRPRPGYGPRP: the “shrunken log2 fold change” value is -0.0142.
Next, RRIRCRPPRLPRPRPRPIGAPRP: -0.0968; RRIRFRPPRLPRPRPRPYYCPRP: -0.74; RRIRNRPPRLPRPRPRPLKPPRP: 0.203.
Consider RRIRRRPPRLPRPRPRPIQGPRP, for which the “shrunken log2 fold change” value is -0.00136.
Next, RRIRGRPPRLPRPRPRPKMMPRP: 0.345; RRIRWRPPRLPRPRPRPPLAPRP: 1.63.
RRIRCRPPRLPRPRPRPFGKPRP: the “shrunken log2 fold change” value was -0.0592.
Next, RRIRKRPPRLPRPRPRPIYLPRP: -0.305; RRIRRRPPRLPRPRPRPPMFPRP: 0.26; RRIRVRPPRLPRPRPRPDMPPRP: -0.264.
With RRIRRRPPRLPRPRPRPHHGPRP, the “shrunken log2 fold change” value is -0.249.
For the sequence RRIRGRPPRLPRPRPRPTTVPRP, the “shrunken log2 fold change” value amounted to 0.368.
Next, RRIRQRPPRLPRPRPRPIVKPRP: -0.108; RRIRNRPPRLPRPRPRPQRQPRP: 0.0149; RRIRVRPPRLPRPRPRPWPFPRP: 0.14.
Next, RRIRKRPPRLPRPRPRPYCLPRP: -0.17; RRIRLRPPRLPRPRPRPRRDPRP: 0.2.
Next, RRIRWRPPRLPRPRPRPEKAPRP: -0.0225; RRIRNRPPRLPRPRPRPSGHPRP: -0.141; RRIRMRPPRLPRPRPRPTIQPRP: 0.318.
On to RRIRHRPPRLPRPRPRPTMAPRP, for which the “shrunken log2 fold change” value is -0.0607.
With RRIRDRPPRLPRPRPRPNHCPRP, the “shrunken log2 fold change” value turned out to be 0.0177.
With RRIRFRPPRLPRPRPRPWCGPRP, the “shrunken log2 fold change” value was -0.142.
Consider RRIRTRPPRLPRPRPRPWTLPRP, for which the “shrunken log2 fold change” value is -0.0728.
In the case of RRIRARPPRLPRPRPRPWPTPRP it was 0.703; in that of RRIRYRPPRLPRPRPRPGTWPRP, 0.585; in that of RRIRQRPPRLPRPRPRPAFMPRP, -0.0902.
With RRIRARPPRLPRPRPRPQHMPRP, the “shrunken log2 fold change” value is -0.414.
Next, RRIRMRPPRLPRPRPRPYSTPRP: -0.137; RRIRMRPPRLPRPRPRPSECPRP: 0.0809; RRIRKRPPRLPRPRPRPHLHPRP: 0.265.
Next, RRIRRRPPRLPRPRPRPQWMPRP: 0.139; RRIRKRPPRLPRPRPRPMLWPRP: 0.323.
In the case of RRIRARPPRLPRPRPRPSLGPRP it was 0.188; in that of RRIRSRPPRLPRPRPRPMPAPRP, 0.26.
For the sequence RRIRLRPPRLPRPRPRPWCFPRP, the “shrunken log2 fold change” value was -0.158.
In the case of RRIRRRPPRLPRPRPRPKNVPRP it was -0.00431.
On to RRIRTRPPRLPRPRPRPFVKPRP, for which the “shrunken log2 fold change” value is -0.838.
In the case of RRIRSRPPRLPRPRPRPRCAPRP it was 0.509; in that of RRIRARPPRLPRPRPRPRWCPRP, 0.0438; in that of RRIRVRPPRLPRPRPRPQRWPRP, 0.496.
Next, RRIRMRPPRLPRPRPRPYHTPRP: -1.11.
In the case of RRIRGRPPRLPRPRPRPYCQPRP it was -0.32; in that of RRIRQRPPRLPRPRPRPHYQPRP, -0.0204.
For the sequence RRIRYRPPRLPRPRPRPFPSPRP, the “shrunken log2 fold change” value was -0.0392.
